Data published in patent US20170306032A1 (RESEARCH CORPORATION TECHNOLOGIES, published 2017).

B1: B11 modified CH2 domain SEQ ID NO: 89 (C terminal cysteine and N terminal hinge sequence) conjugated with Biotin-dPEG11 (designed binder)
chain: GSCDKTHTAPEKKGGPSVFLFPPKPKDTLMISRTPEVTCVVVDYRADYLDVKFNWYVNGAEVHHAQTKPRQYDPLYGYRVVSVLTVTHQDWLNGKEYTCKVSNKALPAPIQKTISKDC
modifications: conjugated with Biotin-dPEG11-MAL after reduction with DTT; the residue that carries it is not stated (chain has a C terminal cysteine)
notes: also called B11-dPEG-biotin
B2: B11 modified CH2 domain SEQ ID NO: 90 (N terminal hinge sequence) conjugated with Biotin-dPEG11 (designed binder)
chain: GSCDKTHTAPEKKGGPSVFLFPPKPKDTLMISRTPEVTCVVVDYRADYLDVKFNWYVNGAEVHHAQTKPRQYDPLYGYRVVSVLTVTHQDWLNGKEYTCKVSNKALPAPIQKTISKDK
modifications: conjugated with Biotin-dPEG11-MAL after reduction with DTT; the residue that carries it is not stated
notes: also called B11-dPEG-biotin
B3: E10 modified CH2 domain (first generation loop 2 clone, parental clone of the affinity maturation) (designed binder)
chain: GPSVFLFPPKPKDTLMISRTPEVTCVVVDVSHEDPEVKFNWYVDGAEVHHAQTKPRQYDPLYGYRVVSVLTVLHQDWLNGKEYKCKVSNKALPAPIEKTISKAK
notes: purified protein elsewhere; also called E10par
B4: B11 modified CH2 domain (affinity matured, loop 1 YRADYL, loop 2 of E10) (designed binder)
chain: GPSVFLFPPKPKDTLMISRTPEVTCVVVDYRADYLEVKFNWYVDGAEVHHAQTKPRQYDPLYGYRVVSVLTVLHQDWLNGKEYKCKVSNKALPAPIEKTISKAK
B5: G7 modified CH2 domain (affinity matured, loop 1 PHLGVD, loop 2 of E10) (designed binder)
chain: GPSVFLFPPKPKDTLMISRTPEVTCVVVDPHLGVDEVKFNWYVDGAEVHHAQTKPRQYDPLYGYRVVSVLTVLHQDWLNGKEYKCKVSNKALPAPIEKTISKAK
B6: D2 modified CH2 domain (affinity matured, loop 1 YEAAAL, loop 2 of E10) (designed binder)
chain: GPSVFLFPPKPKDTLMISRTPEVTCVVVDYEAAALEVKFNWYVDGAEVHHAQTKPRQYDPLYGYRVVSVLTVLHQDWLNGKEYKCKVSNKALPAPIEKTISKAK
notes: Expressed in Shuffle cells, purified on HisTrap
B7: H6 modified CH2 domain (first generation loop 2 clone) (designed binder)
chain: GPSVFLFPPKPKDTLMISRTPEVTCVVVDVSHEDPEVKFNWYVDGAEVHHAQTKPRRVDPLGGYRVVSVLTVLHQDWLNGKEYKCKVSNKALPAPIEKTISKAK
notes: purified on a Nickel column from E. coli periplasm for protein ELISA and SPR
B8: H3 (first generation loop 2 clone, loop 2 AYYALGG) (designed binder)
chain: GPSVFLFPPKPKDTLMISRTPEVTCVVVDVSHEDPEVKFNWYVDGAEVHHAQTKPRAYYALGGYRVVSVLTVLHQDWLNGKEYKCKVSNKALPAPIEKTISKAK
notes: From library #15 (Glu293 to Thr299 randomised); A9 is kept apart as m12; also called H3par
B9: wild type CH2D (wild type human IgG CH2 domain) (other)
chain: APELLGGPSVFLFPPKPKDTLMISRTPEVTCVVVDVSHEDPEVKFNWYVDGVEVHNAKTKPREEQYNSTYRVVSVLTVLHQDWLNGKEYKCKVSNKALPAPIEKTISKAK
notes: also called CH2wt
B10: B11 modified CH2 domain SEQ ID NO: 91 (C terminal cysteine) conjugated with Biotin-dPEG11 (designed binder)
chain: GPSVFLFPPKPKDTLMISRTPEVTCVVVDYRADYLDVKFNWYVNGAEVHHAQTKPRQYDPLYGYRVVSVLTVTHQDWLNGKEYTCKVSNKALPAPIQKTISKDC
modifications: conjugated with Biotin-dPEG11-MAL after reduction with DTT; the residue that carries it is not stated (chain has a C terminal cysteine)
notes: also called B11-dPEG-biotin

What was measured:
[1] = target: T1, human EphA2 receptor expressed on cells (HEK293-EphA2, CHO-EphA2, PC-3) (human, UniProt P29317 24-976); test: immunofluorescence on PC-3 cells expressing endogenous EphA2 receptor, 4° C. for 30 minutes
T1 construct: whole, on cells; also called EphA2 transfected cells; HEK293-EphA2 overexpressing cells
T1 sequence (P29317 24-976): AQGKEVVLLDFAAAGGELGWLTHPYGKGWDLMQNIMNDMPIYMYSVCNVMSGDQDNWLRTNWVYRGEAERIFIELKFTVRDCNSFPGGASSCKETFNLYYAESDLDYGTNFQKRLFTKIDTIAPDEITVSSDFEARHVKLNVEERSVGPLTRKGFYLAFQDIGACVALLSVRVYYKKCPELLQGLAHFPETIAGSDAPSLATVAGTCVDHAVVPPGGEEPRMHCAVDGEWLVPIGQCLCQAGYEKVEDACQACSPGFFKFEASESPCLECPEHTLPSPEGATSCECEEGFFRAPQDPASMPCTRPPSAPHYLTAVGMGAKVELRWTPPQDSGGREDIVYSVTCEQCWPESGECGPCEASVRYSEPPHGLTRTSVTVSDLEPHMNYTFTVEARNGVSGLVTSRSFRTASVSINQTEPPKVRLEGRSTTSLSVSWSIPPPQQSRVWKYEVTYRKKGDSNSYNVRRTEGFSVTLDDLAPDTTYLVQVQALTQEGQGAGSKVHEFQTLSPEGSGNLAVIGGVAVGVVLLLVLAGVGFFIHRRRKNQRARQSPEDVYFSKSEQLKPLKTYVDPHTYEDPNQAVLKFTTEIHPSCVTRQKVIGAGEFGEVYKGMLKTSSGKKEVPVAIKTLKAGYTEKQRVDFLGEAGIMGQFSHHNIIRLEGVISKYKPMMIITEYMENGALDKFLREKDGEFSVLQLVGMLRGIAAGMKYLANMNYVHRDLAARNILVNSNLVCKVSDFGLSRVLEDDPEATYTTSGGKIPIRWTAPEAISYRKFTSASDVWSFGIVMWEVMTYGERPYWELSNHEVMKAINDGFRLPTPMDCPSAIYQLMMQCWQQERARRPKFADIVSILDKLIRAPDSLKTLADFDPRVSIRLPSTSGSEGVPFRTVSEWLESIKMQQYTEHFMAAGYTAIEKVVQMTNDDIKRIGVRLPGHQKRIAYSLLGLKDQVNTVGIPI

[2] = target: T2, FcRn; test: SPR
T2 construct: also called neonatal receptor FcRn
T2 sequence (P55899 24-297, chain 1 of 2): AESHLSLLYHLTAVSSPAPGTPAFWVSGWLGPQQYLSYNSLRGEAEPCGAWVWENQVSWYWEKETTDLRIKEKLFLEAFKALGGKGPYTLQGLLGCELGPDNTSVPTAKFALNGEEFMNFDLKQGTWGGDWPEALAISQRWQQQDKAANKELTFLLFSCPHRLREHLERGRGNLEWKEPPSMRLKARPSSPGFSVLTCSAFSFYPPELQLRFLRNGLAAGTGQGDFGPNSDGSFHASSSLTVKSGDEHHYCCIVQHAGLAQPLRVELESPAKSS
T2 sequence (P61769 21-119, chain 2 of 2, further chain): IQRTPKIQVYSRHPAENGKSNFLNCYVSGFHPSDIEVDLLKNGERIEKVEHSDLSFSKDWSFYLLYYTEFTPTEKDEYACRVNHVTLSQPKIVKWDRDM

[3] = target: T3, mouse EphA2 recombinant protein (Fc chimera, R&D Systems, cat#639-A2) (mouse, UniProt Q03145 26-535); test: SPR, Biacore 3000, on mEphA2
T3 construct: Biotinylated for the Octet assay; also called mEphA2-Fc; mEphA2; Fc part of the bought chimera not given
T3 sequence (Q03145 26-535, change not shown): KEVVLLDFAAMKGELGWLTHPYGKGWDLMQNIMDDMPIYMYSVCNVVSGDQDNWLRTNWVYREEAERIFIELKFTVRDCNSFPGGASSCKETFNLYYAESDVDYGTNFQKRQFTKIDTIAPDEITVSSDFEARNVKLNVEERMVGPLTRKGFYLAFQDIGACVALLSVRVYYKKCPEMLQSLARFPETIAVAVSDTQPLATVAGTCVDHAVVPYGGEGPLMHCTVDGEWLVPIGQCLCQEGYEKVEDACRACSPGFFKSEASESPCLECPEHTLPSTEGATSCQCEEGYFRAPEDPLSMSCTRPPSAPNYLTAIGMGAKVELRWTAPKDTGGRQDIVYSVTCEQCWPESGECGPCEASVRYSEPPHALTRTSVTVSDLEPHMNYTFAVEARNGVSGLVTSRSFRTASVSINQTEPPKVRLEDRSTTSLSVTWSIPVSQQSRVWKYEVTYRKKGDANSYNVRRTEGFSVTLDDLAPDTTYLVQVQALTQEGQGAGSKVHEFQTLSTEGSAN

[4] = target: BSA (bovine serum albumin, control) (bovine, UniProt P02769 25-607); test: phage ELISA on coated BSA, anti-M13-HRP
BSA (bovine serum albumin, control), sequence (P02769 25-607 limits assumed): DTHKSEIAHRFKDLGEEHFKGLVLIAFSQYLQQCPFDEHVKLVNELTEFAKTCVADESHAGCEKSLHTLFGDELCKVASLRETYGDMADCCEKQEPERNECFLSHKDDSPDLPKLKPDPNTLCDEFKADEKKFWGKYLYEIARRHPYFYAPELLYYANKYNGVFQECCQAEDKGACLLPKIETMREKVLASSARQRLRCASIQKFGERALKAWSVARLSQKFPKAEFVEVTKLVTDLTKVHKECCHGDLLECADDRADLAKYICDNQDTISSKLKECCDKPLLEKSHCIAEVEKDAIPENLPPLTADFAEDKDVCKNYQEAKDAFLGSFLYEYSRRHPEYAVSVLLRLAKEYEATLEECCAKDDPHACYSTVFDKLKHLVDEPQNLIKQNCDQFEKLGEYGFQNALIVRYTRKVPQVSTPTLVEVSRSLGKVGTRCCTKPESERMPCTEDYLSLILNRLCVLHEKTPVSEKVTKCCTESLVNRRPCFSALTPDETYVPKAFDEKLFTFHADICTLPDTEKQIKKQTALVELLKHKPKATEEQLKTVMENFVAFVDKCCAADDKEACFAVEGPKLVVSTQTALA

[5] = target: T4, human EphA2 recombinant protein (purified human EphA2 extracellular domain) (human, UniProt P29317 24-537); test: phage ELISA on coated hEphA2, anti-M13-HRP, developed 30 min
T4 construct: extracellular domain; Biotinylated for the Octet assay; also called hEphA2; huEphA2
T4 sequence (P29317 24-537): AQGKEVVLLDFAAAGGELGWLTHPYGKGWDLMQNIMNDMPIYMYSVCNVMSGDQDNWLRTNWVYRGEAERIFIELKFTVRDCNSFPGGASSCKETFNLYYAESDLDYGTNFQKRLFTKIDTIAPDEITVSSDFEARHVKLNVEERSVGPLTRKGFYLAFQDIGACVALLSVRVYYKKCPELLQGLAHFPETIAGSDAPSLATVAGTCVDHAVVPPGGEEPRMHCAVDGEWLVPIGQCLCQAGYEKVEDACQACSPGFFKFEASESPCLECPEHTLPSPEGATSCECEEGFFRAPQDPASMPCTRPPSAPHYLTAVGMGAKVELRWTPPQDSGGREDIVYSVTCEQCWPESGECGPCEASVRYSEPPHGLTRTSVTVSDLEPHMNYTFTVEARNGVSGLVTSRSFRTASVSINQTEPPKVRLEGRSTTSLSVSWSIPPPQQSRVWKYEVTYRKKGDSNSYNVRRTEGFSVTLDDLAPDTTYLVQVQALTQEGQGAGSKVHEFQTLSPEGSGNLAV

[6] = target: T1, human EphA2 receptor expressed on cells …; test: phage ELISA on fixed HEK293 cells with doxycycline-induced EphA2 (NO DOX, 100, 50, 25 ng/ml), anti-M13-HRP
[7] = target: T3, mouse EphA2 recombinant protein (Fc …); test: end-point titration ELISA on mEphA2
[8] = target: T4, human EphA2 recombinant protein …; test: end-point titration ELISA on huEphA2
[9] = target: T1, human EphA2 receptor expressed on cells …; test: FACS on CHO cells transfected with human EphA2
[10] = target: T4, human EphA2 recombinant protein …; test: SPR, Biacore 3000, immobilized huEphA2 extracellular domain
[11] = target: T4, human EphA2 recombinant protein …; test: SPR, Biacore 3000, immobilized huEphA2 extracellular domain, KDkinetic
[12] = target: T4, human EphA2 recombinant protein …; test: SPR, Biacore 3000, immobilized huEphA2 extracellular domain, KDequilibrium
[13] = target: T3, mouse EphA2 recombinant protein (Fc …); test: BLI, Octet Red, biotinylated mEphA2 on streptavidin sensors, steady state fit (column head prints EC50, title KD)
[14] = target: T4, human EphA2 recombinant protein …; test: BLI, Octet Red, biotinylated huEphA2 on streptavidin sensors, steady state fit (column head prints EC50, title KD)
[15] = target: T1, human EphA2 receptor expressed on cells …; test: FACS titration on human EphA2 transfected CHO cells, anti-His-FITC detection [upper panel]

Binder	binding result [1]	Kd [3] [nM]	koff [3] [s⁻¹]	kon [3] [M⁻¹ s⁻¹]	EC50 [7] [nM]	EC50 [8] [nM]	EC50 [9] [nM]	Kd [13] [nM]	Kd [14] [nM]	other results
B1	binds	–	–	–	–	–	–	–	–	–
B2	binds	–	–	–	–	–	–	–	–	–
B3	–	97	0.008	79100	–	–	–	–	–	Kd [2]: 3260 nM; binding result [4]: no binding; binding result [5]: binds; binding result [6]: binds
B4	–	–	–	–	9.89	4.43	403	5.5	3.1	koff [10]: 0.0158 s⁻¹; kon [10]: 1.21e+06 M⁻¹ s⁻¹; Kd [11]: 13 nM; Kd [12]: 13.9 nM
B5	–	–	–	–	3.18	8.06	333	21	18	koff [10]: 0.0375 s⁻¹; kon [10]: 1.8e+06 M⁻¹ s⁻¹; Kd [11]: 21 nM; Kd [12]: 22 nM
B6	–	–	–	–	1.97	2.55	1310	18	20	–
B7	–	873	0.008	9610	–	–	–	–	–	binding result [4]: no binding; binding result [5]: binds; binding result [6]: binds
B8	–	383	0.014	36400	–	–	–	–	–	–
B9	–	–	–	–	–	–	–	–	–	Kd [2]: 1660 nM; binding result [15]: no binding (tested: about 3.6 µM)
B10	binds	–	–	–	–	–	–	–	–	–
